B1: Ras-related GTP-binding protein D (Homo sapiens), Q9NQL2 (parent)
chain: MSQVLGKPQPQDEDDAEEEEEEDELVGLADYGDGPDSSDADPDSGTEEGVLDFSDPFSTEVKPRILLMGLRRSGKSSIQKVVFHKMSPNETLFLESTNKICREDVSNSSFVNFQIWDFPGQIDFFDPTFDYEMIFRGTGALIFVIDSQDDYMEALARLHLTVTRAYKVNTDINFEVFIHKVDGLSDDHKIETQRDIHQRANDDLADAGLEKIHLSFYLTSIYDHSIFEAFSKVVQKLIPQLPTLENLLNIFISNSGIEKAFLFDVVSKIYIATDSTPVDMQTYELCCDMIDVVIDISCIYGLKEDGAGTPYDKESTAIIKLNNTTVLYLKEVTKFLALVCFVREESFERKGLIDYNFHCFRKAIHEVFEVRMKVVKSRKVQNRLQKKKRATPNGTPRVLL

Variants of: B1
Conditions: with sylc_human LARS1, Q9P2J5
sylc_human LARS1, Q9P2J5, sequence (Q9P2J5 whole entry, looked up): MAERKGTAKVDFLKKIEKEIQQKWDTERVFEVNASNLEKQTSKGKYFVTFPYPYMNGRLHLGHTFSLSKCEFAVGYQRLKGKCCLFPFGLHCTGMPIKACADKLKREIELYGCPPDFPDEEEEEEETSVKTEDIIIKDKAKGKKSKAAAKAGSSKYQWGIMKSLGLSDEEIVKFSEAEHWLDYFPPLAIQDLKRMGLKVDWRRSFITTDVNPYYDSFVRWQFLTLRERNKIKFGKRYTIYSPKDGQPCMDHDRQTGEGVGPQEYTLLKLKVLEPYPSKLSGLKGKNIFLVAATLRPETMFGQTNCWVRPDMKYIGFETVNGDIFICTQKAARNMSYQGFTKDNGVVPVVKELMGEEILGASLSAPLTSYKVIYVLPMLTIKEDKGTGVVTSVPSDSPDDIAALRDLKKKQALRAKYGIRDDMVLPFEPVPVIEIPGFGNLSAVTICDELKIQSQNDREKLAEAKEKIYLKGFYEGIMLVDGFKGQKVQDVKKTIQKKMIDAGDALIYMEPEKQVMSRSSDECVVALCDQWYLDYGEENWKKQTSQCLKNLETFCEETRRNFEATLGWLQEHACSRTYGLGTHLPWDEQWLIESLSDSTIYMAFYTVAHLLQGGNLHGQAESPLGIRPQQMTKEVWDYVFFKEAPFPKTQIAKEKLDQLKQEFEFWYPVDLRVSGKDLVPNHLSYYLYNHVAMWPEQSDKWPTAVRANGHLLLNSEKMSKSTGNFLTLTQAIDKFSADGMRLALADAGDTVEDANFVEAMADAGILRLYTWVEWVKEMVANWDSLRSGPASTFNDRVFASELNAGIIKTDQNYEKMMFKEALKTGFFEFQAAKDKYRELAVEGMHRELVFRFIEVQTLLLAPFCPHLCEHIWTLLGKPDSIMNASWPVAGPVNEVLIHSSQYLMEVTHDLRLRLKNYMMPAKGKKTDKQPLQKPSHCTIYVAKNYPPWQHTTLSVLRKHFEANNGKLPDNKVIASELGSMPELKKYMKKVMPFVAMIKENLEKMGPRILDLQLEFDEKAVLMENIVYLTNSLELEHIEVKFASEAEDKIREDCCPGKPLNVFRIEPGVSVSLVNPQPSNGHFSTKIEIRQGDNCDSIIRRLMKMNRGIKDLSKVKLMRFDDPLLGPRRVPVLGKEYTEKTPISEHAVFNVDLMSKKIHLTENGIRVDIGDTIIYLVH

Q: Which “effect of a mutation on the interaction” value does the source give for MSQVLGKPQPQDEDDAEEEEEEDELVGLADYGDGPDSSDADPDSGTEEGVLDFSDPFSTEVKPRILLMGLRRSGKSSIQKVVFHKMSPNETLFLESTNKICREDVSNSSFVNFQIWDFPGLIDFFDPTFDYEMIFRGTGALIFVIDSQDDYMEALARLHLTVTRAYKVNTDINFEVFIHKVDGLSDDHKIETQRDIHQRANDDLADAGLEKIHLSFYLTSIYDHSIFEAFSKVVQKLIPQLPTLENLLNIFISNSGIEKAFLFDVVSKIYIATDSTPVDMQTYELCCDMIDVVIDISCIYGLKEDGAGTPYDKESTAIIKLNNTTVLYLKEVTKFLALVCFVREESFERKGLIDYNFHCFRKAIHEVFEVRMKVVKSRKVQNRLQKKKRATPNGTPRVLL [Q121L] here?
A: Its value is “increasing interaction strength”.

Q: MSQVLGKPQPQDEDDAEEEEEEDELVGLADYGDGPDSSDADPDSGTEEGVLDFSDPFSTEVKPRILLMGLRRSGKSLIQKVVFHKMSPNETLFLESTNKICREDVSNSSFVNFQIWDFPGQIDFFDPTFDYEMIFRGTGALIFVIDSQDDYMEALARLHLTVTRAYKVNTDINFEVFIHKVDGLSDDHKIETQRDIHQRANDDLADAGLEKIHLSFYLTSIYDHSIFEAFSKVVQKLIPQLPTLENLLNIFISNSGIEKAFLFDVVSKIYIATDSTPVDMQTYELCCDMIDVVIDISCIYGLKEDGAGTPYDKESTAIIKLNNTTVLYLKEVTKFLALVCFVREESFERKGLIDYNFHCFRKAIHEVFEVRMKVVKSRKVQNRLQKKKRATPNGTPRVLL [S77L] was tested. Which “effect of a mutation on the interaction” value did it give?
A: The value was “decreasing interaction strength”.

From IntAct's records for PubMed 22424946
